From PMC5438308, “Structural and dynamic insights into the role of conformational switching in the nuclease activity of the Xanthomonas albilineans Cas2 in CRISPR-mediated adaptive immunity” (Structural Dynamics, 2017)

Molecular target: the molecule itself
Assay: SEC

B1: Xanthomonas albilineans Cas2 (enzyme)
chain: MMVLVSYDVSTSSPGGDKRLRKVAKACRDLGQRVQFSVFEIEVDPAQWTALRQRLCDLIDPDIDSLRFYHLGAKWEARVEHVGAKPSLDLKGPLIF
notes: Cas2 of Xanthomonas albilineans, subtype I-C CRISPR-Cas system; synthetic cas2 gene in pET21a; residue numbers in the structure run to 96 (C-terminal tails 87-96 / 86-96 not modelled); also called XaCas2; WT XaCas2; not shown: His6, C-terminal, kept
- stoichiometry N: 2
